Laboratory results taken from article PMC11130540, “Does Acinetobacter calcoaceticus glucose dehydrogenase produce self-damaging H2O2?” (Bioscience Reports, 2024).

Target: the molecule itself
Assay: crystal structure; holo-sGDH (around 10 mg/ml) reconstituted with PQQ before crystallization; hanging drop vapor diffusion at 20°C, 20% (w/v) PEG 6000, 100 mM TRIS pH 8.0, with 2 mM zinc chloride (wild-type) or 200 mM lithium chloride (mutants); two monomers in the asymmetric unit

| Protein | stoichiometry N |
| --- | --- |
| soluble glucose dehydrogenase (sGDH) from Acinetobacter calcoaceticus, wild-type, holo form (enzyme, UniProt P13650 25-478, looked up, soluble glucose dehydrogenase (sGDH) of Acinetobacter calcoaceticus, UniProt P13650; native open reading frame on plasmid pGP492; printed number + 24 in P13650; Holo enzyme with the prosthetic group PQQ (found cleaved in the crystals) and calcium ions; No tag is named; also called sGDH WT; WT) DVPLTPSQFAKAKSENFDKKVILSNLNKPHALLWGPDNQIWLTERATGKILRVNPESGSVKTVFQVPEIVNDADGQNGLLGFAFHPDFKNNPYIYISGTFKNPKSTDKELPNQTIIRRYTYNKSTDTLEKPVDLLAGLPSSKDHQSGRLVIGPDQKIYYTIGDQGRNQLAYLFLPNQAQHTPTQQELNGKDYHTYMGKVLRLNLDGSIPKDNPSFNGVVSHIYTLGHRNPQGLAFTPNGKLLQSEQGPNSDDEINLIVKGGNYGWPNVAGYKDDSGYAYANYSAAANKSIKDLAQNGVKVAAGVPVTKESEWTGKNFVPPLKTLYTVQDTYNYNDPTCGEMTYICWPTVAPSSAYVYKGGKKAITGWENTLLVPSLKRGVIFRIKLDPTYSTTYDDAVPMFKSNNRYRDVIASPDGNVLYVLTDTAGNVQKDDGSVTNTLENPGSLIKFTYKAK | 2 |
| soluble glucose dehydrogenase (sGDH) from Acinetobacter calcoaceticus, Y343F mutant, holo form (enzyme, soluble glucose dehydrogenase (sGDH) of Acinetobacter calcoaceticus, UniProt P13650, with Y343F; Holo enzyme with PQQ (found cleaved in the crystals) and calcium ions; No tag is named; also called sGDH Y343F; single mutant) DVPLTPSQFAKAKSENFDKKVILSNLNKPHALLWGPDNQIWLTERATGKILRVNPESGSVKTVFQVPEIVNDADGQNGLLGFAFHPDFKNNPYIYISGTFKNPKSTDKELPNQTIIRRYTYNKSTDTLEKPVDLLAGLPSSKDHQSGRLVIGPDQKIYYTIGDQGRNQLAYLFLPNQAQHTPTQQELNGKDYHTYMGKVLRLNLDGSIPKDNPSFNGVVSHIYTLGHRNPQGLAFTPNGKLLQSEQGPNSDDEINLIVKGGNYGWPNVAGYKDDSGYAYANYSAAANKSIKDLAQNGVKVAAGVPVTKESEWTGKNFVPPLKTLYTVQDTYNYNDPTCGEMTFICWPTVAPSSAYVYKGGKKAITGWENTLLVPSLKRGVIFRIKLDPTYSTTYDDAVPMFKSNNRYRDVIASPDGNVLYVLTDTAGNVQKDDGSVTNTLENPGSLIKFTYKAK | 2 |
| soluble glucose dehydrogenase (sGDH) from Acinetobacter calcoaceticus, D143E/Y343F mutant, holo form (enzyme, soluble glucose dehydrogenase (sGDH) of Acinetobacter calcoaceticus, UniProt P13650, with D143E and Y343F; Holo enzyme with PQQ (found cleaved in the crystals) and calcium ions; No tag is named; also called sGDH D143E/Y343F; Y343F/D143E) DVPLTPSQFAKAKSENFDKKVILSNLNKPHALLWGPDNQIWLTERATGKILRVNPESGSVKTVFQVPEIVNDADGQNGLLGFAFHPDFKNNPYIYISGTFKNPKSTDKELPNQTIIRRYTYNKSTDTLEKPVDLLAGLPSSKEHQSGRLVIGPDQKIYYTIGDQGRNQLAYLFLPNQAQHTPTQQELNGKDYHTYMGKVLRLNLDGSIPKDNPSFNGVVSHIYTLGHRNPQGLAFTPNGKLLQSEQGPNSDDEINLIVKGGNYGWPNVAGYKDDSGYAYANYSAAANKSIKDLAQNGVKVAAGVPVTKESEWTGKNFVPPLKTLYTVQDTYNYNDPTCGEMTFICWPTVAPSSAYVYKGGKKAITGWENTLLVPSLKRGVIFRIKLDPTYSTTYDDAVPMFKSNNRYRDVIASPDGNVLYVLTDTAGNVQKDDGSVTNTLENPGSLIKFTYKAK | 2 |
